Data reported in US20200079833A1 (AstraZeneca / MedImmune, published 2020).
Starred links: 1 amine or outer side, 2 acyl side, 3 side chain; linkers in the order of their positions; H or OH if unused. Non-standard residues stand in square brackets, D forms with d. Groups on a side chain read outwards from the residue. Primed or numbered codes have the meaning given here. No end group written: not given here. *: point of attachment. γGlu = O=C(O)[C@H](CCC(=O)[*:2])N[*:1]; Stearoyl = CCCCCCCCCCCCCCCCCC(=O)*; Palmitoyl = CCCCCCCCCCCCCCCC(=O)*; αMeF = C[C@](N)(Cc1ccccc1)C(=O)O; αMeK = C[C@](N)(CCCCN)C(=O)O; αMeS = C[C@](N)(CO)C(=O)O; PEG2′ = not defined here; Aib = CC(C)(N)C(=O)O

T1: glucose-dependent insulinotropic peptide (gastric inhibitory polypeptide) receptor (human, UniProt P48546 22-466)
T1 sequence (looked up): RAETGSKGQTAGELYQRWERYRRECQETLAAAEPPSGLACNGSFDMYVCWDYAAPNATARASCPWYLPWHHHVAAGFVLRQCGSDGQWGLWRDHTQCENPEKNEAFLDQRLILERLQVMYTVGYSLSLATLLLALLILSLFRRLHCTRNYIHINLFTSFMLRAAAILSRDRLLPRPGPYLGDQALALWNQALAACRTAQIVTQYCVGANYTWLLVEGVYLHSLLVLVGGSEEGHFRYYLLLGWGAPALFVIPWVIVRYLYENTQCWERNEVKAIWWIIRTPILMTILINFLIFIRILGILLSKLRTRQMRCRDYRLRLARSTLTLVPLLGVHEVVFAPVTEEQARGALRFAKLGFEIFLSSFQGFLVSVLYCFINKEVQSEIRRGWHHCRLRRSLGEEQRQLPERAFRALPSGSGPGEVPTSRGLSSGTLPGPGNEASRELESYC


Columns and labels:
Assay in all cases: cell-based or functional assay
[1] = molecular target: glucagon receptor (human, UniProt P47871 26-477)
Chain of glucagon receptor (P47871 26-477): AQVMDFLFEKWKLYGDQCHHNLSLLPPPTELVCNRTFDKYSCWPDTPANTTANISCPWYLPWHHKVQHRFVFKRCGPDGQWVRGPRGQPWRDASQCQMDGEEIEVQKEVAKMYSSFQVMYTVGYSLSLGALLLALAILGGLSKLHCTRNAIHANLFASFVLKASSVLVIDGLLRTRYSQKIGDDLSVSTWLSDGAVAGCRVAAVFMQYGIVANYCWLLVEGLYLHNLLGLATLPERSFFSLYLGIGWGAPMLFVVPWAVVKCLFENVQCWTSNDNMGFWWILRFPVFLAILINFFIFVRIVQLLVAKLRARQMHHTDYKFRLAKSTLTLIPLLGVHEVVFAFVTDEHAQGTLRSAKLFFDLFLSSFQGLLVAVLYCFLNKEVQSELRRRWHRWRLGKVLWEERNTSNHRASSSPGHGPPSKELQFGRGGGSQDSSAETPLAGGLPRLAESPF

[2] = molecular target: GLP-1 receptor (human, UniProt P43220 24-463)
[3] = molecular target: T1, glucose-dependent insulinotropic …

Primary assay EC50 (cAMP), n1 [1] [nM] | Primary assay EC50 (cAMP), n2 [1] [nM] | Primary assay EC50 (cAMP), Mean pM GLP-1R [2] [pM] | Primary assay EC50 (cAMP), n1 [2] [pM] | Primary assay EC50 (cAMP), n2 [2] [pM] | Primary assay EC50 (cAMP), n1 [3] [nM] | Primary assay EC50 (cAMP), n2 [3] [nM] | Binder
100 | 100 | 801 | 780 | 820 | 100 | 100 | H[Aib]EGS[αMeF]TTDV[αMeS]S[αMeF]LEGEAA[αMeK]E[αMeF]IA[αMeF]VV[αMeK]GG-NH2 (N-terminus assumed; SMILES CC[C@H](C)[C@H](NC(=O)[C@](C)(Cc1ccccc1)NC(=O)[C@H](CCC(=O)O)NC(=O)[C@](C)(CCCCN)NC(=O)[C@H](C)NC(=O)[C@H](C)NC(=O)[C@H](CCC(=O)O)NC(=O)CNC(=O)[C@H](CCC(=O)O)NC(=O)[C@H](CC(C)C)NC(=O)[C@](C)(Cc1ccccc1)NC(=O)[C@H](CO)NC(=O)[C@](C)(CO)NC(=O)[C@@H](NC(=O)[C@H](CC(=O)O)NC(=O)[C@@H](NC(=O)[C@@H](NC(=O)[C@](C)(Cc1ccccc1)NC(=O)[C@H](CO)NC(=O)CNC(=O)[C@H](CCC(=O)O)NC(=O)C(C)(C)NC(=O)[C@@H](N)Cc1c[nH]cn1)[C@@H](C)O)[C@@H](C)O)C(C)C)C(=O)N[C@@H](C)C(=O)N[C@@](C)(Cc1ccccc1)C(=O)N[C@H](C(=O)N[C@H](C(=O)N[C@@](C)(CCCCN)C(=O)NCC(=O)NCC(N)=O)C(C)C)C(C)C) [SEQ ID NO 29]
100 | 100 | 4620 | 4600 | 4700 | 100 | 100 | H[Aib]EGS[αMeF]TEDV[αMeS]S[αMeF]LEGEAA[αMeK]E[αMeF]IA[αMeF]VV[αMeK]GG-NH2 (N-terminus assumed; SMILES CC[C@H](C)[C@H](NC(=O)[C@](C)(Cc1ccccc1)NC(=O)[C@H](CCC(=O)O)NC(=O)[C@](C)(CCCCN)NC(=O)[C@H](C)NC(=O)[C@H](C)NC(=O)[C@H](CCC(=O)O)NC(=O)CNC(=O)[C@H](CCC(=O)O)NC(=O)[C@H](CC(C)C)NC(=O)[C@](C)(Cc1ccccc1)NC(=O)[C@H](CO)NC(=O)[C@](C)(CO)NC(=O)[C@@H](NC(=O)[C@H](CC(=O)O)NC(=O)[C@H](CCC(=O)O)NC(=O)[C@@H](NC(=O)[C@](C)(Cc1ccccc1)NC(=O)[C@H](CO)NC(=O)CNC(=O)[C@H](CCC(=O)O)NC(=O)C(C)(C)NC(=O)[C@@H](N)Cc1c[nH]cn1)[C@@H](C)O)C(C)C)C(=O)N[C@@H](C)C(=O)N[C@@](C)(Cc1ccccc1)C(=O)N[C@H](C(=O)N[C@H](C(=O)N[C@@](C)(CCCCN)C(=O)NCC(=O)NCC(N)=O)C(C)C)C(C)C) [SEQ ID NO 28]
25 | 25 | 100 | 64 | 140 | 25 | 25 | H[Aib]EGS[αMeF]TSDV[αMeS]S[αMeF]LEGEAAK([PEG2′-PEG2′-γGlu-Stearoyl])E[αMeF]IA[αMeF]VV[αMeK]GG-NH2 [SEQ ID NO 33]
100 | 100 | 88600 | 80000 | 97000 | 100 | 100 | H[Aib]EGS[αMeF]TVDV[αMeS]S[αMeF]LEGEAA[αMeK]E[αMeF]IA[αMeF]VV[αMeK]GG-NH2 (N-terminus assumed; SMILES CC[C@H](C)[C@H](NC(=O)[C@](C)(Cc1ccccc1)NC(=O)[C@H](CCC(=O)O)NC(=O)[C@](C)(CCCCN)NC(=O)[C@H](C)NC(=O)[C@H](C)NC(=O)[C@H](CCC(=O)O)NC(=O)CNC(=O)[C@H](CCC(=O)O)NC(=O)[C@H](CC(C)C)NC(=O)[C@](C)(Cc1ccccc1)NC(=O)[C@H](CO)NC(=O)[C@](C)(CO)NC(=O)[C@@H](NC(=O)[C@H](CC(=O)O)NC(=O)[C@@H](NC(=O)[C@@H](NC(=O)[C@](C)(Cc1ccccc1)NC(=O)[C@H](CO)NC(=O)CNC(=O)[C@H](CCC(=O)O)NC(=O)C(C)(C)NC(=O)[C@@H](N)Cc1c[nH]cn1)[C@@H](C)O)C(C)C)C(C)C)C(=O)N[C@@H](C)C(=O)N[C@@](C)(Cc1ccccc1)C(=O)N[C@H](C(=O)N[C@H](C(=O)N[C@@](C)(CCCCN)C(=O)NCC(=O)NCC(N)=O)C(C)C)C(C)C) [SEQ ID NO 30]
100 | 30 | 123 | 99 | 150 | 100 | 100 | H[Aib]EGS[αMeF]TADV[αMeS]S[αMeF]LEGEAA[αMeK]E[αMeF]IA[αMeF]VV[αMeK]GG-NH2 (N-terminus assumed; SMILES CC[C@H](C)[C@H](NC(=O)[C@](C)(Cc1ccccc1)NC(=O)[C@H](CCC(=O)O)NC(=O)[C@](C)(CCCCN)NC(=O)[C@H](C)NC(=O)[C@H](C)NC(=O)[C@H](CCC(=O)O)NC(=O)CNC(=O)[C@H](CCC(=O)O)NC(=O)[C@H](CC(C)C)NC(=O)[C@](C)(Cc1ccccc1)NC(=O)[C@H](CO)NC(=O)[C@](C)(CO)NC(=O)[C@@H](NC(=O)[C@H](CC(=O)O)NC(=O)[C@H](C)NC(=O)[C@@H](NC(=O)[C@](C)(Cc1ccccc1)NC(=O)[C@H](CO)NC(=O)CNC(=O)[C@H](CCC(=O)O)NC(=O)C(C)(C)NC(=O)[C@@H](N)Cc1c[nH]cn1)[C@@H](C)O)C(C)C)C(=O)N[C@@H](C)C(=O)N[C@@](C)(Cc1ccccc1)C(=O)N[C@H](C(=O)N[C@H](C(=O)N[C@@](C)(CCCCN)C(=O)NCC(=O)NCC(N)=O)C(C)C)C(C)C) [SEQ ID NO 26]
100 | 40 | 446 | 420 | 480 | 100 | 100 | H[Aib]EGS[αMeF]TDDV[αMeS]S[αMeF]LEGEAA[αMeK]E[αMeF]IA[αMeF]VV[αMeK]GG-NH2 (N-terminus assumed; SMILES CC[C@H](C)[C@H](NC(=O)[C@](C)(Cc1ccccc1)NC(=O)[C@H](CCC(=O)O)NC(=O)[C@](C)(CCCCN)NC(=O)[C@H](C)NC(=O)[C@H](C)NC(=O)[C@H](CCC(=O)O)NC(=O)CNC(=O)[C@H](CCC(=O)O)NC(=O)[C@H](CC(C)C)NC(=O)[C@](C)(Cc1ccccc1)NC(=O)[C@H](CO)NC(=O)[C@](C)(CO)NC(=O)[C@@H](NC(=O)[C@H](CC(=O)O)NC(=O)[C@H](CC(=O)O)NC(=O)[C@@H](NC(=O)[C@](C)(Cc1ccccc1)NC(=O)[C@H](CO)NC(=O)CNC(=O)[C@H](CCC(=O)O)NC(=O)C(C)(C)NC(=O)[C@@H](N)Cc1c[nH]cn1)[C@@H](C)O)C(C)C)C(=O)N[C@@H](C)C(=O)N[C@@](C)(Cc1ccccc1)C(=O)N[C@H](C(=O)N[C@H](C(=O)N[C@@](C)(CCCCN)C(=O)NCC(=O)NCC(N)=O)C(C)C)C(C)C) [SEQ ID NO 27]
90 | 90 | 27 | 36 | 18 | 90 | 90 | H[Aib]EGS[αMeF]TSDV[αMeS]S[αMeF]LEGEAA[αMeK]E[αMeF]IA[αMeF]VV[αMeK]GGK([γGlu-Palmitoyl])-NH2 (N-terminus assumed; SMILES CCCCCCCCCCCCCCCC(=O)N[C@@H](CCC(=O)NCCCC[C@H](NC(=O)CNC(=O)CNC(=O)[C@](C)(CCCCN)NC(=O)[C@@H](NC(=O)[C@@H](NC(=O)[C@](C)(Cc1ccccc1)NC(=O)[C@H](C)NC(=O)[C@@H](NC(=O)[C@](C)(Cc1ccccc1)NC(=O)[C@H](CCC(=O)O)NC(=O)[C@](C)(CCCCN)NC(=O)[C@H](C)NC(=O)[C@H](C)NC(=O)[C@H](CCC(=O)O)NC(=O)CNC(=O)[C@H](CCC(=O)O)NC(=O)[C@H](CC(C)C)NC(=O)[C@](C)(Cc1ccccc1)NC(=O)[C@H](CO)NC(=O)[C@](C)(CO)NC(=O)[C@@H](NC(=O)[C@H](CC(=O)O)NC(=O)[C@H](CO)NC(=O)[C@@H](NC(=O)[C@](C)(Cc1ccccc1)NC(=O)[C@H](CO)NC(=O)CNC(=O)[C@H](CCC(=O)O)NC(=O)C(C)(C)NC(=O)[C@@H](N)Cc1c[nH]cn1)[C@@H](C)O)C(C)C)[C@@H](C)CC)C(C)C)C(C)C)C(N)=O)C(=O)O) [SEQ ID NO 32]
